Test results as given in US20160002331A1 (Pfizer, published 2016).
Where “and” joins values, the source holds several entries; their conditions need not be identical. Identical values can stand only once.

T1: human Notch1 NRR_Avi_His recombinant protein (human, UniProt P46531 1434-1737)
T1 construct: Secreted from CHO-PACE cells; cleaved at S1 into an N-terminal ~26 kDa half (LNR-A, B, C, HD1) and a C-terminal ~12 kDa half (HD2 and tag) that stay associated non-covalently; written here as one chain; also called recombinant human Notch1 NRR; human Notch1 NRR immunogen
T1 sequence: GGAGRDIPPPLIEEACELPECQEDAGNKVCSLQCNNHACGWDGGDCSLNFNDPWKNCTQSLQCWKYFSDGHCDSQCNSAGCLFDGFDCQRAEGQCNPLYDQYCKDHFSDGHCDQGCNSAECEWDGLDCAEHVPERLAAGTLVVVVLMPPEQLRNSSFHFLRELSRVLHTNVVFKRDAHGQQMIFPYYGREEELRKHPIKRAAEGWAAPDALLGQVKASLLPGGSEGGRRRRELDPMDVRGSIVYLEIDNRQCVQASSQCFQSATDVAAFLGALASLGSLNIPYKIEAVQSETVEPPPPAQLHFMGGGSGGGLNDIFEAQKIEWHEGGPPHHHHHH


Assays:
[1] = biological target: T2, full-length human Notch1 expressed on the cell surface (human, UniProt P46531 19-2555); experiment: cell-based or functional assay
[2] = biological target: T1, human Notch1 NRR_Avi_His recombinant …; experiment: SPR (Biacore T100), ratio of KD to that of rat 438-hIgG1
Protocol: (§1) The kinetic constants of the anti-Notch1 NRR interactions were determined by surface plasmon resonance (Biacore® T100, Biacore Inc., Piscataway, N.J.). Flow cells of a CM5 chip were immobilized with approximately 10,000 Resonance Unit (RU) of anti-human IgG-Fc (Biacore®) in 10 mM Glycine, pH 5.0 at 10 μl/min for 600 seconds. […] Association of four concentrations of human Notch1 NRR_Avi_His recombinant protein (from 3.7-100 nM) and a zero concentration (running buffer) at 100 μl/min were recorded for 3 minutes in TBS with 1 mM CaCl₂. Dissociation of the complexes was measured for 10 minutes. The surface of the chip was regenerated by injecting 3M MgCl₂ with 3 mM EGTA for 60 seconds at 10 μl/min. Curves obtained after subtraction of the reference and buffer signals were fitted to a 1:1 Langmuir binding model with Biacore® T100 Evaluation Software (Biacore®).

[3] = biological target: T2, full-length human Notch1 expressed on …; experiment: cell-based ELISA, U-2 OS cells expressing full-length human Notch1
Protocol: (§2) Supernatants from clones displaying positive binding to immunogens in recombinant Notch1 NRR based ELISAs described above were then screened for cell surface Notch1 binding in a cell-based ELISA. U-2 OS cells stably overexpressing human or mouse full length Notch1 protein on cell surface were plated at 50,000 cells/well in 96 well plates (white opaque, BD/VWR) the day before ELISA assay. On the day of the ELISA, culture media were removed from wells and serially diluted (1:3 in blocking buffer) antibody solutions or hybridoma culture supernatants were applied to the plate. Plates were incubated at room temperature for 2 hours before being washed with PBS-Mg/Ca. HRP-conjugated secondary antibody was then applied and incubated with cells for 1 hour as described above for recombinant protein ELISA. Plates were washed with PBS-Mg/Ca before being developed with Pico-Chemiluminescent developing kit (Thermal Scientific), and chemiluminescence measurements were performed per manufacturer's instructions. Data plotting and analyses were performed with Microsoft Excel and Graphpad-Prizm software.

[4] = biological target: T3, full-length mouse Notch1 expressed on the cell surface of U-2 OS cells (mouse, UniProt Q01705 19-2531); experiment: cell-based ELISA, U-2 OS cells expressing full-length mouse Notch1
T3 construct: whole, on cells; also called murine Notch1
Protocol: as §2

[5] = biological target: T1, human Notch1 NRR_Avi_His recombinant …; experiment: competition ELISA on coated human Notch1 NRR_Avi_His; competitor 0.8 nM biotinylated rat 438
Protocol: (§3) In a similar manner as described for recombinant protein or cell based ELISAs, 96 well cell culture plates were either coated with Notch1 NRR-Avi_His protein (hi-bound co-Star plates), or seeded with full length Notch1 expressing U-2 OS cells (cell culture plate, Co-star), respectively.
(§4) After incubation for 2 hours, the plates were washed, as described above, and HRP-conjugated streptavidin (Southern Biotech) diluted 1:5000 in blocking buffer was applied. Incubation with streptavidin was allowed for 30 min before the plates were washed again and developed with TMB solution for 10 minutes. Developing reaction was stopped by adding 0.18M H₂SO₄ and absorbance at 450 nm was measured. Data plotting and analyses were performed with Microsoft Excel and Graphpad-Prizm software.

[6] = biological target: T1, human Notch1 NRR_Avi_His recombinant …; experiment: SPR (Biacore T100), antibody captured by anti-human IgG-Fc, NRR_Avi_His as analyte, 1:1 Langmuir model
Protocol: as §1

[7] = biological target: T2, full-length human Notch1 expressed on …; experiment: competition ELISA on U-2 OS cells expressing full-length human Notch1; competitor 0.8 nM biotinylated rat 438
Protocol: as §3, §4

[8] = biological target: T3, full-length mouse Notch1 expressed on …; experiment: cell-based or functional assay
[9] = biological target: T2, full-length human Notch1 expressed on …; experiment: cell-based or functional assay; remark: listed apart in the source

T3 sequence (Q01705 19-2531): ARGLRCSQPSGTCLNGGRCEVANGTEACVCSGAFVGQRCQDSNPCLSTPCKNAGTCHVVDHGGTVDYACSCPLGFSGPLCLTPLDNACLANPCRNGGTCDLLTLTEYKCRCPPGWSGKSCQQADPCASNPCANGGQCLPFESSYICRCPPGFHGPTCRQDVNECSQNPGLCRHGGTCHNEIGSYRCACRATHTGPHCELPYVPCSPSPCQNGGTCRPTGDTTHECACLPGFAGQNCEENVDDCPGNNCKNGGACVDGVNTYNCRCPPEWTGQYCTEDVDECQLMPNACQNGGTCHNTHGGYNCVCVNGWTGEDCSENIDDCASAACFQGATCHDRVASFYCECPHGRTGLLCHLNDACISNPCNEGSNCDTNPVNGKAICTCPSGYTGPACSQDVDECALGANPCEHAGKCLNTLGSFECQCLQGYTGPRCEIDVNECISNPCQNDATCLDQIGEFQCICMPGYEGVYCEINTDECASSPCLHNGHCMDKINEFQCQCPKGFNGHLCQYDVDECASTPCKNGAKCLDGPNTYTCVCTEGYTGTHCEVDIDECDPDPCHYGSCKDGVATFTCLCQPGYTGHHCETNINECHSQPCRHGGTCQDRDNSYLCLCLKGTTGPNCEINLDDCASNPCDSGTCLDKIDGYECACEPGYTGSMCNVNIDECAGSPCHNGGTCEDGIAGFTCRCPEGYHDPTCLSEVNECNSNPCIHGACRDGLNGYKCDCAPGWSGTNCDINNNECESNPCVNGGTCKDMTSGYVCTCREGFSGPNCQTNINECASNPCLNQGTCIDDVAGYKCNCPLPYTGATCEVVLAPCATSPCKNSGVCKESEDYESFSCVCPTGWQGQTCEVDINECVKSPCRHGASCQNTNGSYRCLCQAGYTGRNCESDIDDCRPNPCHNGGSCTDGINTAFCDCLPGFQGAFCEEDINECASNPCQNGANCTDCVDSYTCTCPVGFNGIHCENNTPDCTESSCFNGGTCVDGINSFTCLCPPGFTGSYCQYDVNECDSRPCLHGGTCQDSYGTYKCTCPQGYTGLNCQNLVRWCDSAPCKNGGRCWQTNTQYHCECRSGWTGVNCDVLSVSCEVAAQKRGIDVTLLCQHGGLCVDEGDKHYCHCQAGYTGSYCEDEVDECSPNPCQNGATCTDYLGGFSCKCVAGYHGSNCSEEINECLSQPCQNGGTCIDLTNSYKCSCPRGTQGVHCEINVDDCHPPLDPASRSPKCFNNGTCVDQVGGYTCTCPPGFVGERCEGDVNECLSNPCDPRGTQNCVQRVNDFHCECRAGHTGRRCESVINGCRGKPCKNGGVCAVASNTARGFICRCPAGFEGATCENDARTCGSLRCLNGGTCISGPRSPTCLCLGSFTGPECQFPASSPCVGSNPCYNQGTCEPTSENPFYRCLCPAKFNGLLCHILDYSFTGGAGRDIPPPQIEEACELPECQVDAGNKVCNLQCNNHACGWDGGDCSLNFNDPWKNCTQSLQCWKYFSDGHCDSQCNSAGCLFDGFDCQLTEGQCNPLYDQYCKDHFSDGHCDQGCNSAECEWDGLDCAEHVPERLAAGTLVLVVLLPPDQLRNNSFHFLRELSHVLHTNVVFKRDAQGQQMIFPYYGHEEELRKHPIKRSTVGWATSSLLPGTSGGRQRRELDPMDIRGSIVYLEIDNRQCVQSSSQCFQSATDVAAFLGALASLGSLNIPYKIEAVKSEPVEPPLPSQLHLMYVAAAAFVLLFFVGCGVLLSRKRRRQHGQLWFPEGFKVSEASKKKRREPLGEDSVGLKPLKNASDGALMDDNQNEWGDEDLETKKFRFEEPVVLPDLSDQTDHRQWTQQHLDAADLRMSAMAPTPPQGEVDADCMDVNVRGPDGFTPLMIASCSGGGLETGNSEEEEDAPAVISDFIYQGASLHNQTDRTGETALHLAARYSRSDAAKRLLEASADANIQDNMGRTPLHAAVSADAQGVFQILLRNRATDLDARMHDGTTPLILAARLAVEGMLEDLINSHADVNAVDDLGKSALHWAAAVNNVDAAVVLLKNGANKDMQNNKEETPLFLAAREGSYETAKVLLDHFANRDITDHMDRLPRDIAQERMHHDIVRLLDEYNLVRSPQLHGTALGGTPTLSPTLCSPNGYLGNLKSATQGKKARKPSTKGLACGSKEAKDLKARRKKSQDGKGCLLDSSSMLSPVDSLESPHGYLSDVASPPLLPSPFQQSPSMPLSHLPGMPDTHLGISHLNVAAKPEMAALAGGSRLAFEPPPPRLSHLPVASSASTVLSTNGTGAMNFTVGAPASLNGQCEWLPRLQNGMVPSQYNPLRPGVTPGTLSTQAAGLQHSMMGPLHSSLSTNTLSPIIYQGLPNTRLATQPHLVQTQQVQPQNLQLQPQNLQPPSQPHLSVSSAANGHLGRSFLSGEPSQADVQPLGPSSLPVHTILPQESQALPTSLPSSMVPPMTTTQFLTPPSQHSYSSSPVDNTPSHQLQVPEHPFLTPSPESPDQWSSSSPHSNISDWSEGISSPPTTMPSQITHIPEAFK
T2 sequence (P46531 19-2555): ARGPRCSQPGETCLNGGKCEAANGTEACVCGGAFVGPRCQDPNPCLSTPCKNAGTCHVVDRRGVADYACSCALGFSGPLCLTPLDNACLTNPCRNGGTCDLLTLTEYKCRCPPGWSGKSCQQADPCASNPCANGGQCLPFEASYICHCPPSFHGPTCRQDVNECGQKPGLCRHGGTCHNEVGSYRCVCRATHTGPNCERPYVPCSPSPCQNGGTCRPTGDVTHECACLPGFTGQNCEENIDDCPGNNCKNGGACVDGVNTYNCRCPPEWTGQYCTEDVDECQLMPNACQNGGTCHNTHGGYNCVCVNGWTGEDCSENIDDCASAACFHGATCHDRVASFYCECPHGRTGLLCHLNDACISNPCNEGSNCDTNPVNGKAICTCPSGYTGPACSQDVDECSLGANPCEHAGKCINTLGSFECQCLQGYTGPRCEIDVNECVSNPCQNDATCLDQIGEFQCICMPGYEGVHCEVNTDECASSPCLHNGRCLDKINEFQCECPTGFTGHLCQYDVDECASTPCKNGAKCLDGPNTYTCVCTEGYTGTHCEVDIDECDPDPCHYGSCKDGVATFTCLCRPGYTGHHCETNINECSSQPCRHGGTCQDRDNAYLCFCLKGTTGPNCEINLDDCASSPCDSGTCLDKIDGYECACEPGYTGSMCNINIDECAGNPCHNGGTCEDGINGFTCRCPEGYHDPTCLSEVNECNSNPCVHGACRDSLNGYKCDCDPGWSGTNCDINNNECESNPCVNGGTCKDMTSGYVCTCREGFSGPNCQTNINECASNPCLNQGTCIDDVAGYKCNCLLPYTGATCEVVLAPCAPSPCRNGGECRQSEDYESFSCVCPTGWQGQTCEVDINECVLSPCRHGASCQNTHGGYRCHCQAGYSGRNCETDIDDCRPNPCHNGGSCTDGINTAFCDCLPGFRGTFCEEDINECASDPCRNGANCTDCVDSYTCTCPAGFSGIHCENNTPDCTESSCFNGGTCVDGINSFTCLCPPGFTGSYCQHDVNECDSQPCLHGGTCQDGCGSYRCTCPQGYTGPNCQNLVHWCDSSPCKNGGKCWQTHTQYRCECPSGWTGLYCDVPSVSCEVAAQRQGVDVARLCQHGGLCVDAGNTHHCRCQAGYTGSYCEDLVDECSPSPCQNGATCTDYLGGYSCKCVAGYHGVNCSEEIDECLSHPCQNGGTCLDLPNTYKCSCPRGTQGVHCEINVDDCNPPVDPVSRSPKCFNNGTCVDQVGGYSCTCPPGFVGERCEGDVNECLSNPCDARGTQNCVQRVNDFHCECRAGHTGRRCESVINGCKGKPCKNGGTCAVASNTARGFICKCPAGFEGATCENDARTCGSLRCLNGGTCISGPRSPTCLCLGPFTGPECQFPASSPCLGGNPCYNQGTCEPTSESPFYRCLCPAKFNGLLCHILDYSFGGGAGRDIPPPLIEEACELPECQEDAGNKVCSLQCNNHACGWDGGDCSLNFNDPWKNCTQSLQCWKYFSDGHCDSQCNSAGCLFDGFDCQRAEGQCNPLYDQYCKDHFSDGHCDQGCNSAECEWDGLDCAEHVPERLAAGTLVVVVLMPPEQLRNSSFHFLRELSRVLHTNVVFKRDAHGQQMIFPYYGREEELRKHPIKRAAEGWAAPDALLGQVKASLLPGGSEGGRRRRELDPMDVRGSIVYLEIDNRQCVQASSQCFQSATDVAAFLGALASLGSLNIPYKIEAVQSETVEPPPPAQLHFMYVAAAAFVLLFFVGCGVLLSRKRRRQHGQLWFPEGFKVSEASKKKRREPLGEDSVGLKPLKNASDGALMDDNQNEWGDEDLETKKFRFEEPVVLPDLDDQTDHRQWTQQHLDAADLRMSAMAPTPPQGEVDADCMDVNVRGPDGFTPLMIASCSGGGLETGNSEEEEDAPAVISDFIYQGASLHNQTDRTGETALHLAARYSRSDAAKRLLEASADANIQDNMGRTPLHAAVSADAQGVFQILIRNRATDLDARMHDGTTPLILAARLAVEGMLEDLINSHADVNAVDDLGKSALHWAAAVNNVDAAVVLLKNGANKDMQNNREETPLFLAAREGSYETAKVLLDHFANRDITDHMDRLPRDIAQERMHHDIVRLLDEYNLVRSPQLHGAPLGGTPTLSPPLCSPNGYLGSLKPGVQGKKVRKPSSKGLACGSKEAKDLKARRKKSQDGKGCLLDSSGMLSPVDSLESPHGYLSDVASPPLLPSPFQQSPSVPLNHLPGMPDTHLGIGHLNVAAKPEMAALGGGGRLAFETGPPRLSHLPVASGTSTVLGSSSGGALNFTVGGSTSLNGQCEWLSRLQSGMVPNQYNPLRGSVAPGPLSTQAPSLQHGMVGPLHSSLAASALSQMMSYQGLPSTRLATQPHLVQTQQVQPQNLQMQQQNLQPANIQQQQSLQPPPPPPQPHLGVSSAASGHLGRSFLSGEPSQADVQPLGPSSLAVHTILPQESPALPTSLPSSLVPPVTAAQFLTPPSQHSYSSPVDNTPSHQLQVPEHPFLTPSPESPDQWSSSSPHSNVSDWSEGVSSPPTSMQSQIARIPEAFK

| Binder | IC50, human Notch1 reporter gene co-culture assay (DLL4-HEK293) [1] [nM] | Fold difference from rat 438 [2] [fold] | EC50 [3] [nM] | EC50 [4] [nM] | EC50 [5] [nM] | Kd [6] | koff [6] [s⁻¹] | kon [6] [M⁻¹ s⁻¹] | EC50 [7] [nM] | IC50, mouse Notch1 reporter gene co-culture assay (DLL4-HEK293) [8] [nM] | IC50, Notch1 signaling inhibition co-culture reporter assay [9] [nM] | Maximal Inhibition (%), Notch1 signaling inhibition co-culture reporter assay [9] [%] |
| --- | --- | --- | --- | --- | --- | --- | --- | --- | --- | --- | --- | --- |
| humanized 438 VH1.1/VL1.1 (antibody, human IgG1, V domains shown) VH: EVQLVESGGGLVQPGGSLRLSCAASGFTFSSFAMAWVRQAPGKGLEWVASISYGGADTYYRDSVKGRFTISRDNAKNSLYLQMNSLRAEDTAVYYCAKDLPYYGYTPFVMDAWGQGTLVTVSS VL: DIQLTQSPSSLSASVGDRVTITCRASQRINTDLHWYQQKPGKAPKVLIKFASQTISGVPSRFSGSGSGTDFTLTISSLQPEDFATYYCQQSNSWPYTFGQGTKLEIK | 0.657 | 2.21 | 0.177 | 0.129 | 0.6 | 9.65 nM and 9.6 nM | 0.000422 | 43700 | 2.4 |  |  |  |
| humanized 438 VH1.1/VL1.5 (antibody, human IgG1, V domains shown) VH: EVQLVESGGGLVQPGGSLRLSCAASGFTFSSFAMAWVRQAPGKGLEWVASISYGGADTYYRDSVKGRFTISRDNAKNSLYLQMNSLRAEDTAVYYCAKDLPYYGYTPFVMDAWGQGTLVTVSS VL: DIQMTQSPSSLSASVGDRVTITCRASQRINTDLHWYQQKPGKAPKLLIKFASQTISGVPSRFSGSGSGTDFTLTISSLQPEDFATYYCQQSNSWPYTFGQGTKLEIK | 0.35 |  | 0.219 | 0.146 | 7 |  |  |  | 3.3 | 0.5 |  |  |
| humanized 438 VH1.1/VL1.3 (antibody, human IgG1, V domains shown) VH: EVQLVESGGGLVQPGGSLRLSCAASGFTFSSFAMAWVRQAPGKGLEWVASISYGGADTYYRDSVKGRFTISRDNAKNSLYLQMNSLRAEDTAVYYCAKDLPYYGYTPFVMDAWGQGTLVTVSS VL: DIQLTQSPSSLSASVGDRVTITCRASQRINTDLHWYQQKPGKAPKLLIYFASQTISGVPSRFSGSGSGTDFTLTISSLQPEDFATYYCQQSNSWPYTFGQGTKLEIK | 0.45 | 0.42 | 0.152 | 0.0934 | 2.5 | 1.83 nM | 0.000442 | 242000 | 2.8 | 0.62 |  |  |
| humanized 438 VH1.1/VL1.9 (antibody, human IgG1, V domains shown) VH: EVQLVESGGGLVQPGGSLRLSCAASGFTFSSFAMAWVRQAPGKGLEWVASISYGGADTYYRDSVKGRFTISRDNAKNSLYLQMNSLRAEDTAVYYCAKDLPYYGYTPFVMDAWGQGTLVTVSS VL: DIMLTQSPSSLSASVGDRVTITCRASQRINTDLHWYQQKPGKAPKVLIKFASQTISGVPSRFSGSGSGTDFTLTISSLQPEDFATYYCQQSNSWPYTFGQGTKLEIK | 0.38 |  | 0.178 | 0.137 | 0.4 |  |  |  | 2.2 |  |  |  |
| humanized 438 VH1.0/VL1.1 (antibody, human IgG1, V domains shown) VH: EVQLVESGGGLVQPGGSLRLSCAASGFTFSSFAMAWVRQAPGKGLEWVASISYGGADTYYRDSVKGRFTISRDNAKNSLYLQMNSLRAEDTAVYYCARDLPYYGYTPFVMDAWGQGTLVTVSS VL: DIQLTQSPSSLSASVGDRVTITCRASQRINTDLHWYQQKPGKAPKVLIKFASQTISGVPSRFSGSGSGTDFTLTISSLQPEDFATYYCQQSNSWPYTFGQGTKLEIK | 1.19 | 1.47 | 0.305 | 0.229 | 0.7 | 6.42 nM and 6.4 nM | 0.000389 | 60500 | 4 |  |  |  |
| humanized 438 VH1.1/VL1.0 (antibody, human IgG1, V domains shown) VH: EVQLVESGGGLVQPGGSLRLSCAASGFTFSSFAMAWVRQAPGKGLEWVASISYGGADTYYRDSVKGRFTISRDNAKNSLYLQMNSLRAEDTAVYYCAKDLPYYGYTPFVMDAWGQGTLVTVSS VL: DIQMTQSPSSLSASVGDRVTITCRASQRINTDLHWYQQKPGKAPKLLIYFASQTISGVPSRFSGSGSGTDFTLTISSLQPEDFATYYCQQSNSWPYTFGQGTKLEIK | 0.46 | 5.02 | 0.296 | 0.144 | 1.1 | 21.8 nM | 0.00103 | 47400 | 2.8 |  |  |  |
| humanized 438 VH1.0/VL1.8 (antibody, human IgG1, V domains shown) VH: EVQLVESGGGLVQPGGSLRLSCAASGFTFSSFAMAWVRQAPGKGLEWVASISYGGADTYYRDSVKGRFTISRDNAKNSLYLQMNSLRAEDTAVYYCARDLPYYGYTPFVMDAWGQGTLVTVSS VL: DIQMTQSPSSLSASVGDRVTITCRASQRINTDLHWYQQKPGKAPKVLIKFASQTISGVPSRFSGSGSGTDFTLTISSLQPEDFATYYCQQSNSWPYTFGQGTKLEIK | 1.87 |  |  |  | 2.1 |  |  |  | 11.6 | 1.37 |  |  |
| rat 351(R58Y/V60R)-mIgG1 (antibody, V domains shown) VH: EVQLVESGGGLVQPGRSLKVSCLASGFTFSHYGMNWIRQAPGKGLDWVASISRSGSYIYYRDTVKGRFTVSRDIAKNTLYLQMTSLRSEDTALYYCAREGQFGDYFEYWGQGVMVTVSS VL: DIMLTQSPATLSVTPGERISLSCRASQKISTNLHWYQQKPNESPRILIKYASQTISGIPSRFSGSGSGTDFTLHINTVEPEDFSVYYCQQTNSWPLTFGSGTKLEIK |  |  |  |  |  |  |  |  |  |  | 0.11 | 95.3 |
| rat 438-hIgG1 (antibody, V domains shown, also called r438-hIgG) VH: AVQLVESGGGLVQPGRSLKLSCTASGFTFSSFAMAWVRQAPTKGLEWVASISYGGADTYYRDSVKGRFTISRDNAKSSLYLQMDSLRSEDTSTYYCAKDLPYYGYTPFVMDAWGQGTSVTVSS VL: DIMLTQSPPTLSVTPGETISLSCRASQRINTDLHWYQQKPNESPRVLIKFASQTISGVPSRFSGSGSGTDFTLNINRVEPEDFSVYYCQQSNSWPYTFGAGTKLELK | 0.65 | 1 |  |  | 2.1 | 4.34 nM | 0.000229 | 52700 | 4.4 |  |  |  |
| parental rat 438 (antibody, V domains shown, Rat monoclonal IgG from a hybridoma) VH: AVQLVESGGGLVQPGRSLKLSCTASGFTFSSFAMAWVRQAPTKGLEWVASISYGGADTYYRDSVKGRFTISRDNAKSSLYLQMDSLRSEDTSTYYCAKDLPYYGYTPFVMDAWGQGTSVTVSS VL: DIMLTQSPPTLSVTPGETISLSCRASQRINTDLHWYQQKPNESPRVLIKFASQTISGVPSRFSGSGSGTDFTLNINRVEPEDFSVYYCQQSNSWPYTFGAGTKLELK |  |  | 0.213 | 0.172 |  |  |  |  |  |  |  |  |
